Source: the DeepSol protein solubility set

assay: soluble on expression in E. coli; label from the status in PepcDB or PDB records

| Sequence | soluble on expression in E. coli |
| --- | --- |
| MGSDKIHHHHHHMKVLLIIPAYNEEENILRTIASIETFKQEVTHFQHELDYVVINDGSTDGTKQILEANQINAIHLVLNLGIGGAVQTGYKYALENEYDVAVQFDGDGQHDINSLPILLEPLAEGKCDFSIGSRFIPGNEASFQSTKMRRFGIRLLSFCIRMASGKTIYDVTSGYRAGNRKVIAFFAKRYPTNYPEPESIVHLIKKRFVIVERPVNMMERLGGVSSIRALASVKYMLEVGSAILIAAFMKEGD | not soluble |
| MDHSLNSLNNFDFLARSFARMHAEGRPVDILAVTGNMDEEHRTWFCARYAWYCQQMMQARELELEH | soluble |
| MKKIKKAIIPAAGLGTRFLPATKAMPKEMLPILDKPTIQYIVEEAARAGIEDIIIVTGRHKRAIEDHFDSQKELEMVLKEKGKSELLEKVQYSTELANIFYVRQKEQKGLGHAISSARQFIGNEPFAVLLGDDIVESEVPAVKQLIDVYEETGHSVIGVQEVPEADTHRYGIIDPLTKNGRQYEVKKFVEKPAQGTAPSNLAIMGRYVLTPEIFDYLKTQKEGAGNEIQLTDAIERMNNDNQVYAYDFEGERYDVGEKLGFVKTTIEYALKDDSMREELTRFIKALGL | not soluble |
| MKLIKNAEFGGERPLFESHDLRLENVIIRTGESAIKECSNIETVDCRFEGNYPFWHVHGFKIDRCYFDVGGRSALWYSDHLKMTDTIIDAPKMFREMDEIDIENVTMNDADEVFWRCNGIRIKNLKLHGGTYPFMFSNNIYVDGLESNSKYVFQYVKNVEIHHAKITTKDAFWEVENVTIYDSELNGEYLGWHSKNLRLVNCHITGEQPLCYAHDLILENCTFGPDCDRTFEYSTLQADIHGAITNIKNPMSGCIVADEFGSITIDENIKAPADCEIRLRDERTCFTD | soluble |
| MRNIQIALTKGRLEKHVIPLFEQIGIDCSELKNKGRKLVFQSKNTDISFILVKAVDVATYVEHGVADIGVVGKDILMENEKDIYEMLDLGVGVCKFCVASIPTYNPKSYRKKCIATKYPHITSNYFHNKGEDVEIIKIEGSVEIAPILGLADAIVDIVETGKTLQENGLIVFEEMYSISARMIVNKAALKTKKDEIFSIINMMEQEILSGK | not soluble |
| MSLTTRRDFIKKTVAGTAALSLGSIIPGFGSNSYQEILGANEKIRIGVIGVNSRGNALAQGFAKMKGCEVTYLCDVDSRALERCQADIHKISGRTPKGEKDIRKMLESDDFEAVVIATPDHWHGKAAIMAMQAGKHVYLEKPTSHNPAENEMLVRATLKYNRIVQVGNQRRSWPNVIKAIEEIKSGAIGKVRYAKSWYVNNRPSIGTGKVVPVPDYLDWDLWQGPAPRVPNFKDNYIHYNWHWFWNWGTGEALNNGTHFVDILRWGLGVDYPTKVDSVGGRYRFQDDWQTPDTQLITFQFGDEASCSWEGRSCNSTPVDGYGVGTAFYGETGTLFISGGNEYKITDLQGKVIKDVKSNLKFETGNLLNPSEKLDAYHFENWFDAIRKGGKLNSGIVDACISTQLVQLGNIAQRVGHSLDIDPGSGRILNDLEANKLWGREYEKGWEIREGHHHHHH | soluble |
| MSLKKQLVKTDGHNQLDQPNTKALQLKKKQFNSGVRVTSEISFLREVIAHHPGIETERVIDNQTFGSAMYLERAQKEHQLFIKILRQHGTKVHYLQDLLLEALSAADPNVRQDFIKNFLLESGIKSVSTFEACLNFFRSLDSLVDVIKVMFGGIKVSDVPPITPQRFADIHVSNSPFLIKPLSFSLYPHKFFNTLGTGVALFVTNDSELKRHSLVYEYIMRFHPRFDGVKLYTNRDFKNCLINSSDIIQISNEILLIGISHDTDVLGIESLARNLLSDHTNPIKQIIAINIHKFGAKTNLNKLIAMVDVDKFIIARKVLQATEIFELTATAQRDVDGLAQIKFKPLKFNFGEIIEAIIDKQPRFVIIGGGDEVAERKELLDCGMGVLNLSPGEIVVFDRNHYTNNLLNELGLIIHKIPASELSRGPSGPLEMVCSLWREEGHHHHHH | soluble |
| MAHHHHHHMRGMWATLRLFRCDRNFTALNRGNGVYNIQSVASRDCALCHSQRAVKHRSLSPDDPFGEKSASDDPVDGFYGAWSNINVDAFANAAASEEVRMAHFGPEWSRFTTIGRLSVKKMNESGSSASSGSEDCGMASQHPLGAEELHMRELRERRKVLERNYSSYDEYVAKELGLSEVDDCDNACGLQSEDPEIVADGEEAEDNDDADEDADNVPLPQFMRRSGCEQENDTGVNIYSSDQQQQQQMGGVPANTVNEGHVPQRRGTLHPPEPLAQVVFCQLGEPHGDSELPREDPLHWDTEEVILWIRRMEAAQCVLSSGSLACDSLVMEDPSMQEAFRMARIDGDYLLKNTVPATMFQVMRRWHLRRHEIVLAVLKEQQRRGIDSHEINTSIFDDPIMRGILDSGRAKLDEVVLMVTPMLVQETICQGYLYCR | not soluble |
| MGSDKIHHHHHHMLFSVVDDRSGVAYQEYHCVYGEDAETALRFLFNSMAPKADPSFPFQGRPKLIYLDNGPVAKRRVFQSVMRALGIEWQTHIPASKDGTRTTARSKGKVERPFRTVKEAHETLYHFHKPETEAQANEWLLRYLVRTYNQQTHRAEPLSRIEDWITHVPTEGIREMCSWDQFCRFAREPERRKVGPDARITTDGTAYELEPEMAGDYVVLLWGLFDDELHAEFDGERFGPHYPVSGPIPQHRYRAFKRSKADERSARIRSLADQLGLPIAALSGEDVRLEPGSADSTLPIQPFVFEPQESRIAAKLAIAEELAMPLAKLSMDDRAFIDQVLSETLATD | not soluble |
| MSLGAIVEVITIKNYSLKSENYEAEIDIPKIRGLKDKNLEQRLNSSFMEDGKRLYHQFQERMEKIQSSKNKGYKSLSLSYSVKNNSKKFLSIEMTKNEIEASSYVSKVHYTIDKKRQIVLTLPMLFKDDKYIKVISDNIKEQMREQMKKDSTKSYFIDEGHHHHHH | not soluble |
| MTLTRKTLFLLTAAFGTHSLQTASADAVVKAEKLHASANRSYKVAGKRYTPKNQVAEFTQTGNASWYGGRFHGRKTSGGERYDMNAFTAAHKTLPIPSYVRVTNTKNGKSVIVRVNDRGPFHGNRIIDVSKAAAQKLGFVNQGTAHVKIEQIVPGQSAPVAENKDIFIDLKSFGTEHEAQAYLNQAAQNFAVSSSGTNLSVEKRRYEYVVKMGPFTSQERAAEAEAQARGMVRAVLTAG | not soluble |
| MGSDKIHHHHHHMIDTFERTGPLMEASSYPAWAQQLINDCSPAKARVVEHELYQQMRDAKLSPQIMRQYLIGGWPVVEQFAVYMAKNLTKTRFGRHPGEDMARRWLMRNIRVELNHADYWVNWCAAHDVTLEDLHDQRVAPELHALSHWCWQTSSSDSLAVAMAATNYAIEGATGEWSAVVCSTGVYAEAFAEETRKKSMKWLKMHAQYDDAHPWEALEIICTLVGNKPSLQLQAELRQAVTKSYDYMYLFLERCIQLDKVKSPRGRVAALEM | not soluble |
| SLTLPQTERQYLSGHGCDDMVEWDFFCTDGRNSGKWTKIGVPSCWELQGFGTYQYGITFYGKAFPEGIADEKGMYKYEFEVPEKFRGQQVNLVFEASMTDTEVKVNGRKVGSKHQGAFYRFSYNVTDFLKYGKKNLLEVTVSKESENASVNLAERRADYWNFGGIFRPVFLEVKPAINLRHIAIDAQMDGSFRANCYTNLSNDGMSIRAQILDNKGKKLTETTVPVKAGGDWTSLQLKVSDPALWTAETPNLYKAQFSLLDKDGKVLHNETETFGFRTIEVRESDGLYVNGVRIMVRGVNRHSFRPESGRTLSKAKNIEDVLLMKDMNMNSVRLSHYPADPEFLEACDSLGLYVMDELGGWHGKYDTPTGVRLIKGMIERDVNHPSIIWWSNGNEKGWNTELDGEFHKYDPQKRPVIHPQGNFSGFETMHYRSYGESQNYMRLPEIFMPTEFLHGLYDGGHGAGLYDYWEMMRKHPRCIGGFLWVLADEGVKRVDMDGFIDNQGNFGADGIVGPHHEKEGSFYTIKQLWSPVQIMNTSVDKQFDGKFSVENRYDYLNLNTCRFLWKQVKFPTATDASNTTAQVLKQGEVQGSDVAAHSAGVLDIKTTILPDADALFLTAIDRYGHELWRWTFPVNKLNQANEVLSPLSNEG | soluble |
| MAHHHHHHMKSLENNEMHNLCPIHYYFNGRDYNSDTIINNVNIKYFNMDNCLGNANLHMDYLNPVLNHPTKIEHGKIKILILDAPTNDLLPLYIKEMKNYNVTDLVRTCERTYNDGEIQDAGINVHELIFPDGDAPTEDIVSNWLNIVNNVIKNNCAVAVHCVAGLGRAPVLASIVLIEFGMDPIDAIVFIRDRRKGAINKRQLQFLKEYRKKKKKKNCLRKCHFM | not soluble |
| MPLKGFEIIKSMITLLFLYQAIIRNFEEIVQFLGKIMGCGSSSPAEVAPAEIIEPSPSSDVPSDPKIPTSYRPSIISLQIPNEFGDDVSSDALSDRSDAQEENVDYLYATDVTLQWLLERIYDKFKKPIPEDPQWIIERLNRPSWDLDYATSSVVRVTFGWDDDELPRSVVLKTPVAKDQRDDEEGKYHYIMFKRECNVYEWTQKFPKLIAPKIIHIKKHSKEGSGVVVMEDVSEKGQEQDPVKGLMLEVVRDLLKQIAYLHSISLKHTSWSTLVADLPPSYYAHTIGSFDDTLTFFERQDVDHSRFVHIGKYFSDEYLHSTATETTELLDIPKVLVHGEPYASNVFTKMEGKEQRILSLIDWTEGHSGCFAEDVAKIICWNLNAKERVDNTSSLLEGYHFHLARYYDGDCPFTVDIIQRAYEVFVPFAMVSLCGKVMSVKNKTEKEPLIERAKSLIQQVYAMERLNES | not soluble |
| MAHHHHHHMIKRYLKIYPSIYFTKHVYTAPEIDGSKDLLKKDYVFNQYVNKKEIFLNNKLKKGNCENEIKRIYYFKLWNAMVEHNFTLFENIIQQYLNEGYKYDEVIYSIMTHAYILNHKKKNENAYLVIEEMKRAFMHPIIIKINERMINCFLELELIFCEPSKSLWINVCRFIWESSIKLNRERRRKLKEKLNLLEPNQVLKLTKEDVKKLVKKEYEETLLSMMDTLSLDGEDPYDHILIDRKENYMKIENQKDGNFFPSNGNELTCLNNNHIYNDHINYLKGNIENDTSENVNSFMFSILNEGKNKTTEQEINYQDDYNLNNNDYMTKITNINSDNNIMMNMENEHMYETDEKDEHYESFDDAEDFDIQLLKKYYNLK | not soluble |
| MSLEKKTLLTHCPDAPGLISKITNICYKHQLNIIHNNEFVDNASGHFFMRTELEGYFNDATLLADLDHALPQGTRRKLISSSRKRIVILVTKEAHCLGDILMKNYDGSLDVDIAAVVGNYDTLQRLTERFDIPYHCVSHEGLSREAHEQALLDVIDQYQPDYLVLAKYMRVLTPAFVERFHHKIINIHHSFLPAFIGAKPYQQAYERGVKIIGATAHFVTNDLDEGPIIKQDVIPVDHTFSAQDMAQAGRDVEKNVLSKALNKVLNDHVFVYGNKTVILERHHHHHH | soluble |
| MEIRKKLVDPSKYCIKCPYTMNPEFITVHNTYNDATAENEVAYMIRNDNQVSFHIAVDDKEAVQGIPLERNAWHTGDGNGNGNRKSIGVEICYSLSGGDRYYKAEDNAAIVVAQLMKQYNIPIKKVRTHQSWSGKYCPHRMLAEGRWNNFIERVQNAYNGDGKVTPTLIPPSTNGTGIAYIEGNGINLRKGLGTGYGVIRQLGKGESYEVWGQSNGWLNLGGNQWIYNDSSYIRYTGESTPTSSQSVNNGVGIVTITADVLRVRKGPGTNYDIVKNVYQGEQYQSWGYRDGWYNVGGDQWVSGEYVKFED | not soluble |
